From the supplement of paper PMC9732359
± gives the uncertainty stated by the source.

assay: protein stability index of a GFP-peptide fusion (yeast GPS) (PSI 1-4); higher = more stable; sorted into four equal gates, so the index is relative within each strain; conditions: pdr5∆
In short: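 Yeast carrying a pooled library were grown to mid-log phase in leucine-free medium. Each library plasmid expresses Cherry and has a tiled 17-residue yeast protein peptide fused downstream of GFP. Cells were sorted into four equal gates by GFP/Cherry ratio, and plasmids from each gate were PCR-amplified, Illumina-sequenced and assigned to strains by barcode. Summing, across gates, the read frequency times the gate number gave each peptide's protein stability index.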

Sequence | protein stability index
KKEANLFPEQQNKEIKA [RPL6A] | 3.43 ± 0.088
KKEEELGVKSRLLEKSE [SNF2] | 3.01 ± 0.14
KKFLRVRIFTKIESEDD [SRB4] | 1.26 ± 0.089
KKHLKRLAAPHHWLLDK [RPS4A] | 2.58 ± 0.078
KKICNHPFVFEEVEDQI [SNF2] | 2.89 ± 0.055
KKIKGKSIQDIVGLATL [SRP21] | 3.22 ± 0.035
KKIREIYRYDEMSNKVL [BRR2] | 3.06 ± 0.13
KKITLQLLDTSNQRFKD [SIN4] | 3.18 ± 0.067
KKKRFEIKKWTAVAFWS [HRT1] | 1.58 ± 0.12
KKLDDKPSLVDVHLLES [RPN6] | 1.29 ± 0.14
KKLPRKTHRGLRKVACI [RPL3] | 3.5 ± 0.098
KKLVWPLHLIFAQPVAD [SSN2] | 1.39 ± 0.073
KKMMNTLVHTRVKIANT [SSN2] | 2.35 ± 0.05
KKNKRALPNIENDIIKL [BRR2] | 3.36 ± 0.062
KKNSSRPMPPIRGPKRR [SMD3] | 1.86 ± 0.037
KKNVWRSINNLIQEHDS [BRN1] | 2.75 ± 0.075
KKRKIHNGREGSIEEPE [MCD1] | 3.24 ± 0.06
KKRLMDIDDELNELETL [SMC2] | 3.17 ± 0.067
KKSVNKLDKQINMADRS [POP6] | 2.94 ± 0.08
KKVVIVKPHDEGSKSHP [RPL27A] | 2.86 ± 0.066
KLALGIALEGYRLDIIE [RPN2] | 1.77 ± 0.11
KLEPKEIVRDILHTKES [SIR4] | 3.1 ± 0.14
KLKQLLDESSEQKNTAK [YIL149C/MLP2] | 3.22 ± 0.11
KLLFQELMAMNITPRLY [RPB2] | 1.39 ± 0.066
KLLIQIDELSNGQRSNS [SMC1] | 2.59 ± 0.11
KLLQLAGVEDVYTQSNG [RPS2] | 2.64 ± 0.13

Sequence | protein stability index
KLQFETDRLSTTQRRYE [SMC1] | 3.3 ± 0.058
KLQSQSLHTKNVFGTLQ [YLR018C/POM34] | 2.82 ± 0.12
KLSISNAASQQPTPRSA [GAL11] | 2.61 ± 0.081
KLSKILPRYQELTKEEA [SMC3] | 3.34 ± 0.094
KLTDEQSSLDVAGLEDK [SIR3] | 2.85 ± 0.13
KLTSEETVFNYRLMIKR [GRR1] | 2.96 ± 0.12
KLVEIIWNDVVYGEGTS [YJL039C/NUP192] | 3.26 ± 0.11
KLWFQLSESLTKFFDDA [RPN9] | 3.24 ± 0.099
KLYQTEPSGIYSSWSAQ [PRE6] | 2.15 ± 0.11
KMELVYVSDSDDSSSDN [SIR4] | 2.68 ± 0.058
KMFIQRILAMCVKNHGQ [YCS4] | 2.1 ± 0.055
KMIDFATLSKLKKKYQI [SIR3] | 3.35 ± 0.1
KMNNKPERFMVFQLPTR [RPC53] | 2.75 ± 0.056
KMSVTCNAQPITRSVMR [BRR2] | 2.67 ± 0.057
KNAQYHLLVKQGDGLLT [RPN7] | 1.61 ± 0.079
KNATEELLRLANEQLKL [CSN12] | 2.93 ± 0.058
KNDKLIKIEDFVDDMLR [SNF5] | 2.73 ± 0.066
KNDNIKKSVNKLDKQIN [POP6] | 2.87 ± 0.059
KNFIESESVGAFLSFLA [YJL039C/NUP192] | 2.25 ± 0.068
KNFKGIEEIEYNVKNII [PCI8] | 3.04 ± 0.093
KNGNEYNEFLYSKAGRE [QCR8] | 3 ± 0.081
KNKGLVVSPYDYNHKRV [DIB1] | 3.19 ± 0.11
KNLISRINTLPQVQLPV [ECM29] | 2.86 ± 0.1
KNLKDTASVEKAEFSKE [YIL149C/MLP2] | 3.19 ± 0.091
KNLKPQEQLKNVKNDVS [YIL149C/MLP2] | 3.21 ± 0.067
KNSTSSMTAVPKPLKFL [RPN1] | 2.31 ± 0.072

Sequence | protein stability index
KNTEEGKALVHHYEECA [QCR6] | 3.29 ± 0.072
KNTELSYDFLPLSNIKA [RPN12] | 2.85 ± 0.074
KNVKHSGNIQLDEIIEI [RPL12A] | 3.2 ± 0.067
KNVNIEDITEPKPDKPS [ESC2] | 3.1 ± 0.099
KNVRTRIKLATTSERVS [RRI1] | 2.56 ± 0.058
KNYLKNYILNFKQSNSE [CDC53] | 1.95 ± 0.043
KPAFSFGAKSDEKKDSD [YJL041W/NSP1] | 3.25 ± 0.069
KPAFSFGINTNTTKTAD [YLR335W/NUP2] | 3.09 ± 0.1
KPALGSLGSSSTTASGT [YGR119C/NUP57] | 3.3 ± 0.084
KPMNKGQHKNNTSLNIN [SWP82] | 2.84 ± 0.091
KPNLNYFKSILLNKNTG [SWI1] | 2.19 ± 0.044
KPSNGKGSRKSSKAATP [SNF12] | 3.02 ± 0.076
KPTSPFIDSICKLFDKI [SRB8] | 1.93 ± 0.035
KPWFATVNGQARDLATM [FAS1] | 3.08 ± 0.1
KQKSWVPSYIHVEKERA [YIL149C/MLP2] | 2.25 ± 0.048
KQLVEKAELRLAIADSP [ECM29] | 3.38 ± 0.29
KQTAAYRTPGSSGVLSS [SSN2] | 3.04 ± 0.063
KQYDNRITKSNEKSQAE [LRP1] | 2.91 ± 0.11
KRCVGVILGDANSSTIR [RPN8] | 2.77 ± 0.051
KREASRGFFDILSLATE [MCD1] | 3.21 ± 0.06
KREGKTRLLNIVMQLRK [ISW2] | 3.02 ± 0.063
KRHSYAQSSHIRAIRKV [RPS1A] | 2.336 ± 0.017
KRLSAALSKFLTHPKYL [YML103C/NUP188] | 2.25 ± 0.066
KRRKLDLNNAVQKRDEV [SMC4] | 2.89 ± 0.12
KRSDLTGANSIYSVEKK [UBP6] | 2.8 ± 0.15
KRSTVPLNDGFVDLVEH [YML103C/NUP188] | 2.97 ± 0.093

Sequence | protein stability index
KSEFDDLSLNIHPIPSV [YMR129W/POM152] | 2.92 ± 0.039
KSIIGKLTAERANLRKY [POP1] | 2.92 ± 0.081
KSKEDMKQLKFFKPLDY [SNU114] | 3.08 ± 0.098
KSKKSWLNRLNNWLFGW [YMR153W/NUP53] | 2.66 ± 0.046
KSKTSTGKERSKKRKLN [SNM1] | 3.2 ± 0.097
KSLGLKLPLSVINVSAQ [RPS17A] | 1.36 ± 0.048
KSNSTGNISSSTVKKKD [REC8] | 2.96 ± 0.058
KSQEQREHSLQLFRTNK [PRP28] | 2.51 ± 0.11
KSSAFVIDIGASGCNVT [ARP7] | 2.46 ± 0.063
KSSILTVLQKNSLLLDS [YML103C/NUP188] | 1.71 ± 0.08
KSSNDTIEHAADITDGN [YCG1] | 3.16 ± 0.2
KSSVPGSAELRNSYPAS [RPN3] | 3.33 ± 0.076
KSVRILKNKAEYLKNCP [RPC40] | 3.19 ± 0.064
KSYASLLAQLNGTVNNN [RPT3] | 1.84 ± 0.11
KTADVKRQYVKQFLTKD [RPL20A] | 2.92 ± 0.055
KTAYSIYLSQNELTDAI [RPN1] | 2.28 ± 0.038
KTCIQGINSPLSSVALR [YJL039C/NUP192] | 1.41 ± 0.25
KTDLELLVERLKEDDSS [RPN1] | 3.3 ± 0.14
KTDPAGYYVGYKATATG [SCL1] | 3.24 ± 0.065
KTICNLLISDTESNELI [IRR1] | 2.73 ± 0.075
KTIEVTAEINCFMHLLV [RPN3] | 1.77 ± 0.26
KTITLEVESSDTIDNVK [RPS31] | 3.08 ± 0.062
KTITSGLKYALATGNWG [RPB2] | 2.33 ± 0.056
KTKWDRKPMGKRINFEK [POP1] | 3.35 ± 0.075
KTLCARAVANRTDATFI [RPT1] | 1.37 ± 0.12
